From the nanobody polyreactivity screen of Harvey et al. (2022)

experiment: yeast display, Sf9 membrane polyspecificity reagent, FACS + sequencing; frameworks hold sequencing errors
In short: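 In a synthetic yeast display library (Saccharomyces cerevisiae BJ5465), nanobody expression was induced with galactose for 36–48 hours. FACS gates were set low and high (top ~1%) using anti-HA fluorescence for expression and streptavidin fluorescence for binding of the Sf9 membrane reagent. Each polyreactivity label is drawn from the gate of origin.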

Sequence	polyreactivity (PSR sort gate)
QVQLVESGGGLVQAGGSLRLSSAASGSIFYRYAMGWYRQAPGKERELVAVISRGGSTNYADSVKGRFTISRDNAKNTVYLQMNSLKPEDTAVYYCAAGGYSKGDYWGQGTQVTVSS	high polyreactivity
QVQLVESGGGLVQAGGSLRLSCAASGSTFYSYAMGWYRQAPGKERELVAAIDSGGSTYYADTVKGRFTISRDNAKTTVYLQKNSLKPEDTAVYYCAVRVTSYYRTKDYWGQGTQVTVSS	low polyreactivity
QVQLVESGGGLVQAGGSLRLSCAASGRIFLVYAMGWYRQAPGKERELVAAISYSGGRTYYADSVKGRFTISRDNAKNTVYLQMNSLKPEDTAVYYCAAKRITYYGGGRFYYWGQGTQVTVSS	high polyreactivity
QVQLVESGGGLVQAGGSLRLICAASGIIFDDYAMVWYRQAPGNERELVAAISVSGGSTYYADSVKGRFTISRDNAKNTVYLQMNSLKPEDTAVYYCAARLRWRYSYDYWGQGTQVTVSS	high polyreactivity
QVQLVESGGGLVQAGGRLRLSCAASGITFQPNAMGWYRQAPGKERELVARITRGGGRTYYADSVKGRFTISRDNAKNTVYLLMHSLKPEDTAVYYCAADYSYIYGFDYWGQGTQVTVSS	low polyreactivity
QVQLVESGGGLVQAGGSLRLSCAASGRTFYRNTMGWYRQAPGKERELVAAITRSGGSTYYADSVKGRVTISRDNAKNTVYLQMNSLKPEDTAVYYCAASRTYYAPYGYWGQGTQVTVSS	high polyreactivity
QVHLVESGGGLVQAGGSLRLSCAASGSTFHKYALGWYRQAPGKEREYVAAISWSGGSTYYADSVKGRFTISRDNAKYTVYLQMNSLKPEDTAVYFCAARGNRYAYPRKYDYWGQGTQVTVSS	high polyreactivity
QVQLVESGGGLVQAGGSLRLSFAASGRTFRYYAMGWYRQAPGKERELVAAISGRGGSTYYADSVKARFTISRDNAKNSVYLQMNRQKPEDTAVYYCAASFYSIRYDYWGQGTQVTVSS	high polyreactivity
QVQLVESGGGLVQAGGSLSLSCAASGSISDVYAMGGYRQAPGKERELVAAITSGASTYYADSVKGRFTISRDNAKNTVYLQMNSLKPEDTAVYYCAAGYSDWYYAAYNSWGQGTQVTVST	low polyreactivity
QVQLVESGGGLVQAGGSLRLSCAASGLILYFNARGWYRQAPGKERELVADISSSGSSTYYADSVKGRFTISRDNAKNTVYLQMNSLKPEDTAVYYCAAGYYGEYWRSWYDYWGQGTQVTVSS	low polyreactivity
QVQLVESGGGLVQAGGSLRLTCAASGGIFYKYAKGWYRQAPGKEMELVAAITGRGGSTNYADSVKVRFTISRDNAKNTVYLQMNSLKPEDTAVYYCAARYTPTWSYGYWGQGTQVTVSS	low polyreactivity
QDQLVESVGGLDQAGGSLRLSSAASGRTFWWNAMGWYRQAPGKERELVAVISYSGGSTYYADSVKGRFTISRDNAKNTVYLQMNSLKPEDTAVYYCAAATRVRGFTEYYWGQGTQVTVSS	high polyreactivity
QVQLVESGGGLVQAGGSLRLSCAASGSILYVYAMGWYTQAPGKERELVAAISNRDGSTYYADSVKGRFTISRDNAKNTVYLQMNSLKPEDTAVYYCNADGYGDYSFLKYRFEYDYWGQGTQVTVSS	low polyreactivity
QFQLEESRRGLDQAGGSLRLSCAASGSIFTLYDMGWYRQAPGKERELVAAITSGGSTDYADSVKGRFTISRDKAKNTVFLQMNSLKPEDTAVYYCAADTFYIYEDVLYVQGDYYWGQGTQVTVSS	low polyreactivity
QVQLVESGGGLLQAGGSLRLSCAASGSTLRRYAMGWDRQAPGKERELVAAISGSGDSTYYADSVKGRFTISRDNAKNTVYLQMNSLKPEDTAVYYCNAVYAFNGYDYWGQGTQVTVSS	low polyreactivity
QFHLVESGGGLVQAGGSLRLSCAASGSNILYYVMGWYRQAPRKERELVAAITWDGGSTYYADSVKGRFTISRDNAKNTVYLELNSLIPEDTAVYYCNKVTTYSYYTEPYEYWGQGTQVTVSS	low polyreactivity
QVQLVESGGGLVQAGGSLRLSCAASGITFRQYAMGWYRQAPGKEREFVAAISWIGGSTYYADSVKGRFTISRDTAKNTVYLQMNSLKPEDTAVYYCAAETFTDYDYWGQGTQVTVSS	high polyreactivity
QVQLVESGGGLVQAGGSLRLSCAASGSTFGVNAMGWYRQAPGKERELVAAISSSGSSTYADSVKGRFTISRDYAKNTVYLQMNSLKPEYTGVYYCNKTTLLTVEYDYWGQGPQVTVSS	low polyreactivity
QVQLVESGGGLVQAGGSLRLSCAASGRNFKHYAMGWYRQAPGKERELVAAISYSGGSPKYADSVKGRFTISRYNAMNTVYLQMNSLKPEDTAVYYCAARFFTPFRFSYDYWGQGTQVTVSS	high polyreactivity
QVQLVESCGGLVQAGGSLLLSCAASGGTFCDYAMVWYRQAPGKEREFVASITRSVSDTYYADSVKGRFTISRDNAKNTVYLQINSLKPEDTAVYYCKADRWYPWRSIMDYWGQGTQVSVSS	low polyreactivity
QVQLVESGGGLVQAGGSLRLSCAASGSTFYVNDMGWYRQAPGKERELVATISSGSSTYYADSVKGRFTISRDNAKNTVYLQMNSLKPEDTAVYYCAADGVAEEGFDARYDYWGQGTQVTVSS	low polyreactivity
QVQLVESGGGLVQAGGSLRLSCAASGSTFVYNAMGWYRQAPGKERELVAGISSSGGRTYYADSVKGRFTISRDNAKNTVYLQMNSLKPEDTAVYYCNVVTYRRFDYWGQGTQVTVSS	low polyreactivity
QVQLVESGGGLVQAGGSLRLSCAASVFIFDRYAMGWYRQAPGKERELVAAISSGGSTYYADSVKGRFTISRDNAKNTVYLQMNSLKPEDTAVYYCAAESWLNFIYEYDYWGQGTQVTVSS	low polyreactivity
QVQLVESGGGLVQAGGTLRLSCAASGSIFGSYAMGWYRQAPGKERELVAAISGSGGRTYYADSVKGRFTISRDNAKNTVYVQMNSLKPEDTAVYYCAAAYPRVTYKYGYYWGQGTHVTVSS	high polyreactivity
QVQLVESGGGIVQAGGSLRLSCAASGRSFGIYAMGWYRQAPGKERELVAGITRGDRTFAYSVKGRFTISRDNAKNTVYLQMNSLKPEDTAVYYCNADVYPYKLALPAGMGYWGQGTQVTVSS	high polyreactivity
QVQLVESGGGLVQAGGSLRLSCAASGSTFVRYAMGWYRQAPGKEWELVARISGRSGSTYYADSEKGRFTISRDNAKNTVYLQMNSLKPEDTAVYFCAARAWYRVYAYDVWGQGTQVTVSS	high polyreactivity
QVQLVESGGGLVQAGGRLRLSCAASGSIFGFYAMGWYRPAPGKERELVAGISVSDGSTYYADSVKGRFTISRDNAKNTVYLQMNSLKPEDTAVYYCAASPRGSYGYYYWGQGTQVTVSS	low polyreactivity
QVQLVESGGGLVQAGGSLRLSFAASGRMFTGYAMGWYRQAHGKERELVADITSDGGTYYADSVKGRFTISRDNAKNSVYLQMNSLKPEDTAVYYCAAPRVVFGSSGEDDHWGQGTQVTVSS	low polyreactivity
QVQLVESGGGLVQAGGSLRLSCAASGRIFSGSVMGWYRQAPGKVRELVAGITYRDGSTYYADSVKGRFTISRDNAKNTVYFQMNSLKPEDTAVYYCNADDYNDIPYDYWGQGTQVTVSS	low polyreactivity
QVQLVESGGGLVQAGGSLRLSCAASGSIFGYYAMGWYRQAPGKERELVAAISSSGASTYYADSVKGRFTISRDNAKNTVYLQMNSLKPEDTAVNYCNAARRYPTRGGYWGQGTQVTVSS	high polyreactivity
